# T1: human FcεRIα protein (alpha chain of the high affinity IgE receptor) (human, UniProt P12319 26-201)
# T1 construct: Purified soluble protein used in solution; The embodiments and claims speak of the extracellular region 1-176
# T1 sequence (looked up): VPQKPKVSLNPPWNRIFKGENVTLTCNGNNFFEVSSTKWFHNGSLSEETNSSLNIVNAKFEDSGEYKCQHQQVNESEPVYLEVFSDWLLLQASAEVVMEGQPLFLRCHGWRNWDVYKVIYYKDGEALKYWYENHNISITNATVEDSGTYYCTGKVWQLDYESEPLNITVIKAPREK
# B1: Alexa Fluor 488-labeled 367C IgE-Fc (human IgE-Fc Cε3-Cε4 C328A/K367C double mutant) (other)
# chain: ADPAADSNPRGVSAYLSRPSPFDLFIRKSPTITCLVVDLAPSCGTVNLTWSRASGKPVNHSTRKEEKQRNGTLTVTSTLPVGTRDWIEGETYQCRVTHPHLPRALMRSTTKTSGPRAAPEVYAFATPEWPGSRDKRTLACLIQNFMPEDISVQWLHNEVQLPDARHSTTQPRKTKGSGFFVFSRLEVTRAEWEQKDEFICRAVHEAASPSQTVQRAVSVNPGKAADDDDKRYLDPAFLYKVRMNEDLGKPIPNPLLGLDSTRTGHHHHHH
# modifications: Alexa Fluor 488 maleimide dye on Cys 367 (Dorrington and Bennich numbering)
# notes: Expressed in insect cells; also called labeled IgE-Fc
# B2: unlabeled wild type IgE-Fc (human IgE-Fc Cε3-Cε4) (other)
# chain: ADPCADSNPRGVSAYLSRPSPFDLFIRKSPTITCLVVDLAPSKGTVNLTWSRASGKPVNHSTRKEEKQRNGTLTVTSTLPVGTRDWIEGETYQCRVTHPHLPRALMRSTTKTSGPRAAPEVYAFATPEWPGSRDKRTLACLIQNFMPEDISVQWLHNEVQLPDARHSTTQPRKTKGSGFFVFSRLEVTRAEWEQKDEFICRAVHEAASPSQTVQRAVSVNPGK
# notes: also called unlabeled IgE-Fc; unlabeled IgE
# Experiments:
# [1] = target: T1, human FcεRIα protein (alpha chain of …); assay: fluorescence quenching receptor binding titration, 96-well plate
# Protocol: Binding buffer conditions were optimized to improve reproducibility of the binding assay in a 96-well plate format.
# (§1) Fluorescence Measurement. Samples were monitored by fluorescence using a Synergy 4 Fluorometer (BioTek) in black 96-well Costar fluorescence plates (Corning). […] The read-type for typical measurements was Endpoint. All measurements were recorded in duplicate.
# [2] = target: T1, human FcεRIα protein (alpha chain of …); assay: fluorescence quenching competition assay; competitor of 488-labeled 367C IgE-Fc for FcεRIα
# Protocol: Initial experiments were conducted with unlabeled IgE-Fc as the competitor.
# as §1
Binder,Kd [1],EC50 [2]
B1,~22 nM,
B2,,~75 nM

# — patent US20110281365A1 (Stanford University, published 2011)
